According to IntAct's records for PubMed 26559832:

B1: Ribonucleoside-diphosphate reductase large subunit (Human herpesvirus 2 (strain HG52) (HHV-2)), P89462 (parent)
chain: MANRPAASALAGARSPSERQEPREPEVAPPGGDHVFCRKVSGVMVLSSDPPGPAAYRISDSSFVQCGSNCSMIIDGDVARGHLRDLEGATSTGAFVAISNVAAGGDGRTAVVALGGTSGPSATTSVGTQTSGEFLHGNPRTPEPQGPQAVPPPPPPPFPWGHECCARRDARGGAEKDVGAAESWSDGPSSDSETEDSDSSDEDTGSETLSRSSSIWAAGATDDDDSDSDSRSDDSVQPDVVVRRRWSDGPAPVAFPKPRRPGDSPGNPGLGAGTGPGSATDPRASADSDSAAHAAAPQADVAPVLDSQPTVGTDPGYPVPLELTPENAEAVARFLGDAVDREPALMLEYFCRCAREESKRVPPRTFGSAPRLTEDDFGLLNYALAEMRRLCLDLPPVPPNAYTPYHLREYATRLVNGFKPLVRRSARLYRILGVLVHLRIRTREASFEEWMRSKEVDLDFGLTERLREHEAQLMILAQALNPYDCLIHSTPNTLVERGLQSALKYEEFYLKRFGGHYMESVFQMYTRIAGFLACRATRGMRHIALGRQGSWWEMFKFFFHRLYDHQIVPSTPAMLNLGTRNYYTSSCYLVNPQATTNQATLRAITGNVSAILARNGGIGLCMQAFNDASPGTASIMPALKVLDSLVAAHNKQSTRPTGACVYLEPWHSDVRAVLRMKGVLAGEEAQRCDNIFSALWMPDLFFKRLIRHLDGEKNVTWSLFDRDTSMSLADFHGEEFEKLYEHLEAMGFGETIPIQDLAYAIVRSAATTGSPFIMFKDAVNRHYIYDTQGAAIAGSNLCTEIVHPASKRSSGVCNLGSVNLARCVSRQTFDFGRLRDAVQACVLMVNIMIDSTLQPTPQCTRGNDNLRSMGIGMQGLHTACLKMGLDLESAEFRDLNTHIAEVMLLAAMKTSNALCVRGARPFSHFKRSMYRAGRFHWERFSNASPRYEGEWEMLRQSMMKHGLRNSQFIALMPTAASAQISDVSEGFAPLFTNLFSKVTRDGETLRPNTLLLKELERTFGGKRLLDAMDGLEAKQWSVAQALPCLDPAHPLRRFKTAFDYDQELLIDLCADRAPYVDHSQSMTLYVTEKADGTLPASTLVRLLVHAYKRGLKTGMYYCKVRKATNSGVFAGDDNIVCTSCAL

Variants of: B1
Details: with ripk3_human RIPK3, Q9Y572
Sequence of ripk3_human RIPK3, Q9Y572 (Q9Y572 whole entry, looked up): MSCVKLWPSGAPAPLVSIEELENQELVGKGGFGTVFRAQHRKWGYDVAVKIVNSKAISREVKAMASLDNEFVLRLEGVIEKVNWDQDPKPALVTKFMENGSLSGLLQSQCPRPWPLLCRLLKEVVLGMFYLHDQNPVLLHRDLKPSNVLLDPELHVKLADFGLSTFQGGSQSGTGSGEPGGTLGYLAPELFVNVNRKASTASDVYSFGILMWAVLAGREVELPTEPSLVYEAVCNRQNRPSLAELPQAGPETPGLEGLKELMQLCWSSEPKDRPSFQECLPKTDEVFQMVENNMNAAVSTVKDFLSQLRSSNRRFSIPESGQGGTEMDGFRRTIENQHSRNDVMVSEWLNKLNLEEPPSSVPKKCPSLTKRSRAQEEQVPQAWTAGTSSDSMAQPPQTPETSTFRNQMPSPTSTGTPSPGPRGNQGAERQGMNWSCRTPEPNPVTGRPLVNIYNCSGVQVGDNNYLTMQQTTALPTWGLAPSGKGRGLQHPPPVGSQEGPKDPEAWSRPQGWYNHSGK

Variant | effect of a mutation on the interaction
V64A;Q65A;C66A;G67A | decreasing interaction strength
